Data published in publication doi:10.1101/812099 (bioRxiv, 2019).

T1: FUS-LC fused to mCherry (UniProt P35637 2-214)
T1 sequence: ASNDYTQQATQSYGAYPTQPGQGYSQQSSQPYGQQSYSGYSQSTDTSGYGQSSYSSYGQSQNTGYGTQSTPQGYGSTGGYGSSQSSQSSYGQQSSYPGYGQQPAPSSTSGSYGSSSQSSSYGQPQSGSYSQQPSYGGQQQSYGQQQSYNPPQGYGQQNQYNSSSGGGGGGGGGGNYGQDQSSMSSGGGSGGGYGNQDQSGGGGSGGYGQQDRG

T2: Kapβ2 (UniProt Q92973-2 1-890)
T2 sequence: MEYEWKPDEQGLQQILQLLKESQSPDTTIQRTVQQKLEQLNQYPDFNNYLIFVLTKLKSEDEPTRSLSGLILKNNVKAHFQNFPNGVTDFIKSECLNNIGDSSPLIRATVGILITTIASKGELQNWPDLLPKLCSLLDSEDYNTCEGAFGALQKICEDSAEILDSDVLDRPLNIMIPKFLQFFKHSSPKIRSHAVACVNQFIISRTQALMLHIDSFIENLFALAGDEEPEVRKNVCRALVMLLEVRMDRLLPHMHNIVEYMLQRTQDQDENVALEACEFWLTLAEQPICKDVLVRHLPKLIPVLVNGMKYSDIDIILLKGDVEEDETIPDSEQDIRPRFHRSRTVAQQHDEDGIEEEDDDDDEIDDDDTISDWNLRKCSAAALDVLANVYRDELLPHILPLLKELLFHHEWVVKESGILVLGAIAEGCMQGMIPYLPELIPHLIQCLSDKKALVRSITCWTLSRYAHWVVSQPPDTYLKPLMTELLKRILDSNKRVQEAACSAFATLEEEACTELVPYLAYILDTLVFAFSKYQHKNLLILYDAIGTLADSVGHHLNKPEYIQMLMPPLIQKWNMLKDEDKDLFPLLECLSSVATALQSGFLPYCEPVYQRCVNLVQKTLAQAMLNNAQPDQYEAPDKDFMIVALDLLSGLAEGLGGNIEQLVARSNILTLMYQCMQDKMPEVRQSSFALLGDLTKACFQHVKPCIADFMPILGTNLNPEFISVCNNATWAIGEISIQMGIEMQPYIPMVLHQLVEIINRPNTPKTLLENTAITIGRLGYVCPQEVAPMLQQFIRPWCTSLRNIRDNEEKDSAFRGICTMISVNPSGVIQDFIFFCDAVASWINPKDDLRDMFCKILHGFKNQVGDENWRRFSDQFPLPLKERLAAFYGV

T3: GST-Kapβ2 (UniProt Q92973-2 1-890)
T3 sequence: T2 sequence

T4: MBP-FUS (UniProt P35637 1-526)
T4 sequence: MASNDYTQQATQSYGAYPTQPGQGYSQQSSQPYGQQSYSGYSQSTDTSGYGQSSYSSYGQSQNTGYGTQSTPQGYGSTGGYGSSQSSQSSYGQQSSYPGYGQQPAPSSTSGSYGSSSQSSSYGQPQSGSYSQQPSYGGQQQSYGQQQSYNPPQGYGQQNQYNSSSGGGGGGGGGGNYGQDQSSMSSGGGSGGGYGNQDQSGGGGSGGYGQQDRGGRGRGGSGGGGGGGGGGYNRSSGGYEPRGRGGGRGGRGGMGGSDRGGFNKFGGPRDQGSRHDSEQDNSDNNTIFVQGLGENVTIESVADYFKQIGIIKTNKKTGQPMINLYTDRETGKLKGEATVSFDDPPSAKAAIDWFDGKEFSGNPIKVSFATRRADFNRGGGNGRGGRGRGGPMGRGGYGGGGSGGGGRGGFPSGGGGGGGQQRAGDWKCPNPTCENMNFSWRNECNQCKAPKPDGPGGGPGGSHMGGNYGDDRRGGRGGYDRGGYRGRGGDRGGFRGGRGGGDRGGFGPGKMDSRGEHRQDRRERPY

B1: GFP:FUS-LC (domain or fragment)
chain: T1 sequence
B2: FUS(1-500) (domain or fragment)
chain: MASNDYTQQATQSYGAYPTQPGQGYSQQSSQPYGQQSYSGYSQSTDTSGYGQSSYSSYGQSQNTGYGTQSTPQGYGSTGGYGSSQSSQSSYGQQSSYPGYGQQPAPSSTSGSYGSSSQSSSYGQPQSGSYSQQPSYGGQQQSYGQQQSYNPPQGYGQQNQYNSSSGGGGGGGGGGNYGQDQSSMSSGGGSGGGYGNQDQSGGGGSGGYGQQDRGGRGRGGSGGGGGGGGGGYNRSSGGYEPRGRGGGRGGRGGMGGSDRGGFNKFGGPRDQGSRHDSEQDNSDNNTIFVQGLGENVTIESVADYFKQIGIIKTNKKTGQPMINLYTDRETGKLKGEATVSFDDPPSAKAAIDWFDGKEFSGNPIKVSFATRRADFNRGGGNGRGGRGRGGPMGRGGYGGGGSGGGGRGGFPSGGGGGGGQQRAGDWKCPNPTCENMNFSWRNECNQCKAPKPDGPGGGPGGSHMGGNYGDDRRGGRGGYDRGGYRGRGGDRGGFRGGRGG
B3: Kapβ2(ΔLoop) (natural protein)
chain: MEYEWKPDEQGLQQILQLLKESQSPDTTIQRTVQQKLEQLNQYPDFNNYLIFVLTKLKSEDEPTRSLSGLILKNNVKAHFQNFPNGVTDFIKSECLNNIGDSSPLIRATVGILITTIASKGELQNWPDLLPKLCSLLDSEDYNTCEGAFGALQKICEDSAEILDSDVLDRPLNIMIPKFLQFFKHSSPKIRSHAVACVNQFIISRTQALMLHIDSFIENLFALAGDEEPEVRKNVCRALVMLLEVRMDRLLPHMHNIVEYMLQRTQDQDENVALEACEFWLTLAEQPICKDVLVRHLPKLIPVLVNGMKYSDIDIILLKGGGSGGSGSDWNLRKCSAAALDVLANVYRDELLPHILPLLKELLFHHEWVVKESGILVLGAIAEGCMQGMIPYLPELIPHLIQCLSDKKALVRSITCWTLSRYAHWVVSQPPDTYLKPLMTELLKRILDSNKRVQEAACSAFATLEEEACTELVPYLAYILDTLVFAFSKYQHKNLLILYDAIGTLADSVGHHLNKPEYIQMLMPPLIQKWNMLKDEDKDLFPLLECLSSVATALQSGFLPYCEPVYQRCVNLVQKTLAQAMLNNAQPDQYEAPDKDFMIVALDLLSGLAEGLGGNIEQLVARSNILTLMYQCMQDKMPEVRQSSFALLGDLTKACFQHVKPCIADFMPILGTNLNPEFISVCNNATWAIGEISIQMGIEMQPYIPMVLHQLVEIINRPNTPKTLLENTAITIGRLGYVCPQEVAPMLQQFIRPWCTSLRNIRDNEEKDSAFRGICTMISVNPSGVIQDFIFFCDAVASWINPKDDLRDMFCKILHGFKNQVGDENWRRFSDQFPLPLKERLAAFYGV
B4: GFP:hnRNPA2-LC (domain or fragment)
chain: MQEVQSSRSGRGGNFGFGDSRGGGGNFGPGPGSNFRGGSDGYGSGRGFGDGYNGYGGGPGGGNFGGSPGYGGGRGGYGGGGPGYGNQGGGYGGGYDNYGGGNYGSGNYNDFGNYNQQPSNYGPMKSGNFGGSRNMGGPYGGGNYGPGGSGGSGGYGGRSRY

Key:
FUS-LC fused to mCherry = target: T1, FUS-LC fused to mCherry; assay: hydrogel binding assay
Kapβ2 [1] = target: T2, Kapβ2; assay: NMR titration
Kapβ2 [2] = target: T2, Kapβ2; assay: pull-down
GST-Kapβ2 = target: T3, GST-Kapβ2; assay: pull-down
Kapβ2(ΔLoop) = target: B3; assay: ITC
MBP-FUS = target: T4, MBP-FUS; assay: ITC
Kapβ2 [3] = target: T2, Kapβ2; assay: hydrogel binding assay

B1: binds (FUS-LC fused to mCherry).

B2: binds (Kapβ2 [1]).

PRPRPRPRPRPRPRPRPRPRPRPRPRPRPRPRPRPR [GST-PR18]: binds (Kapβ2 [2]).

In the case of PRPRPRPRPRPRPRPRPRPRPRPRPRPRPRPRPRPR [MBP-PR18], the binding result (GST-Kapβ2) is reported as “binds”, the Kd (Kapβ2(ΔLoop)) is reported as 81.3 nM and the “stoichiometry N” value (Kapβ2(ΔLoop)) is reported as 1.

B3: binds (MBP-FUS).

PRPRPRPRPRPRPRPRPRPRPRPRPRPRPRPRPRPRPRPR [(Pro-Arg)20-HA]: binds (Kapβ2 [1]).

B4: binds (Kapβ2 [3]).
